Test results as given in patent publication US20180155451A1 (published 2018).

T1: FcγRIIb extracellular domain with C-terminal His tag (human, UniProt P31994 43-217)
T1 construct: extracellular domain; Expressed in FreeStyle293 cells; analyte in the Biacore assay; also called FcgRIIb; 2b; not shown: His tag at the C terminus
T1 sequence (looked up): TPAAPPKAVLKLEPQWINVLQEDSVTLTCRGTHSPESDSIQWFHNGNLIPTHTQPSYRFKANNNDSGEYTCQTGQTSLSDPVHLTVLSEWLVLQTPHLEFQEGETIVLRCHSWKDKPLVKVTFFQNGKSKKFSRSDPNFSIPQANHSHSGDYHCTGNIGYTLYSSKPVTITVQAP


What was measured:
[1] = biological target: T2, FcγRIa extracellular domain with C-terminal His tag (human, UniProt P12314 16-292); experiment: SPR (Biacore), antibody captured on antigen-peptide chip, FcγR as analyte; relative binding
T2 construct: extracellular domain; Expressed in FreeStyle293 cells; analyte in the Biacore assay; also called FcgRI; 1a; not shown: His tag at the C terminus
T2 sequence (P12314 16-292): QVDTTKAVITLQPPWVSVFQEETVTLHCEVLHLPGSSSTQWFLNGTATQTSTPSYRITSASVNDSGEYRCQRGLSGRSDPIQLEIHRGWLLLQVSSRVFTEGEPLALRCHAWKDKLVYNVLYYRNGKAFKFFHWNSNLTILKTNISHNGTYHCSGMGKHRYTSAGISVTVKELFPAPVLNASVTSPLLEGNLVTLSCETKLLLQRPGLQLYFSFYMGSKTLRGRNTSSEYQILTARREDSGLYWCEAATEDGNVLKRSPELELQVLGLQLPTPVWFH

[2] = biological target: T1, FcγRIIb extracellular domain with …; experiment: as above

Row | Binder | He/Con_1a [1] | He/Con_2b [2]
1 | GpH7-A5/GpH7-B3 variant E269_04F/GpL16-k0 (He Ab) (antibody, human IgG1, kappa, Heterodimerized anti-glypican-3 IgG1; the mutation stands in the GpH7-B3 chain only) heavy 1: not shown heavy 2: not shown light: DIVMTQSPLSLPVTPGEPASISCQASESLVHSNRNTYLHWYLQKPGQSPQLLIYKVSNRFSGVPDRFSGSGSGTDFTLKISRVEAEDVGVYYCSQNTHVPPTFGQGTKVEIERTVAAPSVFIFPPSDEQLKSGTASVVCLLNNFYPREAKVQWKVDNALQSGNSQESVTEQDSKDSTYSLSSTLTLSKADYEKHKVYACEVTHQGLSSPVTKSFNRGEC | 103 % of GpH7-A5/GpH7-B3/GpL16-k0 (=100) | 45 % of GpH7-A5/GpH7-B3/GpL16-k0 (=100)
2 | GpH7-A5/GpH7-B3 variant E269_18N/GpL16-k0 (He Ab) (antibody, human IgG1, kappa, Heterodimerized anti-glypican-3 IgG1; the mutation stands in the GpH7-B3 chain only) heavy 1: not shown heavy 2: not shown light: DIVMTQSPLSLPVTPGEPASISCQASESLVHSNRNTYLHWYLQKPGQSPQLLIYKVSNRFSGVPDRFSGSGSGTDFTLKISRVEAEDVGVYYCSQNTHVPPTFGQGTKVEIERTVAAPSVFIFPPSDEQLKSGTASVVCLLNNFYPREAKVQWKVDNALQSGNSQESVTEQDSKDSTYSLSSTLTLSKADYEKHKVYACEVTHQGLSSPVTKSFNRGEC | 102 % of GpH7-A5/GpH7-B3/GpL16-k0 (=100) | 44.8 % of GpH7-A5/GpH7-B3/GpL16-k0 (=100)
3 | GpH7-A5/GpH7-B3 variant H268_08L/GpL16-k0 (He Ab) (antibody, human IgG1, kappa, Heterodimerized anti-glypican-3 IgG1; the mutation stands in the GpH7-B3 chain only) heavy 1: not shown heavy 2: not shown light: DIVMTQSPLSLPVTPGEPASISCQASESLVHSNRNTYLHWYLQKPGQSPQLLIYKVSNRFSGVPDRFSGSGSGTDFTLKISRVEAEDVGVYYCSQNTHVPPTFGQGTKVEIERTVAAPSVFIFPPSDEQLKSGTASVVCLLNNFYPREAKVQWKVDNALQSGNSQESVTEQDSKDSTYSLSSTLTLSKADYEKHKVYACEVTHQGLSSPVTKSFNRGEC | 107 % of GpH7-A5/GpH7-B3/GpL16-k0 (=100) | 67.8 % of GpH7-A5/GpH7-B3/GpL16-k0 (=100)
4 | GpH7-A5/GpH7-B3 variant E269_11K/GpL16-k0 (He Ab) (antibody, human IgG1, kappa, Heterodimerized anti-glypican-3 IgG1; the mutation stands in the GpH7-B3 chain only) heavy 1: not shown heavy 2: not shown light: DIVMTQSPLSLPVTPGEPASISCQASESLVHSNRNTYLHWYLQKPGQSPQLLIYKVSNRFSGVPDRFSGSGSGTDFTLKISRVEAEDVGVYYCSQNTHVPPTFGQGTKVEIERTVAAPSVFIFPPSDEQLKSGTASVVCLLNNFYPREAKVQWKVDNALQSGNSQESVTEQDSKDSTYSLSSTLTLSKADYEKHKVYACEVTHQGLSSPVTKSFNRGEC | 95.2 % of GpH7-A5/GpH7-B3/GpL16-k0 (=100) | 17.8 % of GpH7-A5/GpH7-B3/GpL16-k0 (=100)
5 | GpH7-A5/GpH7-B3 variant S298_19Q/GpL16-k0 (He Ab) (antibody, human IgG1, kappa, Heterodimerized anti-glypican-3 IgG1; the mutation stands in the GpH7-B3 chain only) heavy 1: not shown heavy 2: not shown light: DIVMTQSPLSLPVTPGEPASISCQASESLVHSNRNTYLHWYLQKPGQSPQLLIYKVSNRFSGVPDRFSGSGSGTDFTLKISRVEAEDVGVYYCSQNTHVPPTFGQGTKVEIERTVAAPSVFIFPPSDEQLKSGTASVVCLLNNFYPREAKVQWKVDNALQSGNSQESVTEQDSKDSTYSLSSTLTLSKADYEKHKVYACEVTHQGLSSPVTKSFNRGEC | 109 % of GpH7-A5/GpH7-B3/GpL16-k0 (=100) | 73.3 % of GpH7-A5/GpH7-B3/GpL16-k0 (=100)
6 | GpH7-A5/GpH7-B3 variant S298_20W/GpL16-k0 (He Ab) (antibody, human IgG1, kappa, Heterodimerized anti-glypican-3 IgG1; the mutation stands in the GpH7-B3 chain only) heavy 1: not shown heavy 2: not shown light: DIVMTQSPLSLPVTPGEPASISCQASESLVHSNRNTYLHWYLQKPGQSPQLLIYKVSNRFSGVPDRFSGSGSGTDFTLKISRVEAEDVGVYYCSQNTHVPPTFGQGTKVEIERTVAAPSVFIFPPSDEQLKSGTASVVCLLNNFYPREAKVQWKVDNALQSGNSQESVTEQDSKDSTYSLSSTLTLSKADYEKHKVYACEVTHQGLSSPVTKSFNRGEC | 104 % of GpH7-A5/GpH7-B3/GpL16-k0 (=100) | 41.1 % of GpH7-A5/GpH7-B3/GpL16-k0 (=100)
7 | GpH7-A5/GpH7-B3 variant E269_05P/GpL16-k0 (He Ab) (antibody, human IgG1, kappa, Heterodimerized anti-glypican-3 IgG1; the mutation stands in the GpH7-B3 chain only) heavy 1: not shown heavy 2: not shown light: DIVMTQSPLSLPVTPGEPASISCQASESLVHSNRNTYLHWYLQKPGQSPQLLIYKVSNRFSGVPDRFSGSGSGTDFTLKISRVEAEDVGVYYCSQNTHVPPTFGQGTKVEIERTVAAPSVFIFPPSDEQLKSGTASVVCLLNNFYPREAKVQWKVDNALQSGNSQESVTEQDSKDSTYSLSSTLTLSKADYEKHKVYACEVTHQGLSSPVTKSFNRGEC | 102 % of GpH7-A5/GpH7-B3/GpL16-k0 (=100) | 52.6 % of GpH7-A5/GpH7-B3/GpL16-k0 (=100)
8 | GpH7-A5/GpH7-B3 variant K326_12R/GpL16-k0 (He Ab) (antibody, human IgG1, kappa, Heterodimerized anti-glypican-3 IgG1; the mutation stands in the GpH7-B3 chain only) heavy 1: not shown heavy 2: not shown light: DIVMTQSPLSLPVTPGEPASISCQASESLVHSNRNTYLHWYLQKPGQSPQLLIYKVSNRFSGVPDRFSGSGSGTDFTLKISRVEAEDVGVYYCSQNTHVPPTFGQGTKVEIERTVAAPSVFIFPPSDEQLKSGTASVVCLLNNFYPREAKVQWKVDNALQSGNSQESVTEQDSKDSTYSLSSTLTLSKADYEKHKVYACEVTHQGLSSPVTKSFNRGEC | 100 % of GpH7-A5/GpH7-B3/GpL16-k0 (=100) | 89.2 % of GpH7-A5/GpH7-B3/GpL16-k0 (=100)
9 | GpH7-A5/GpH7-B3 variant S324_02A/GpL16-k0 (He Ab) (antibody, human IgG1, kappa, Heterodimerized anti-glypican-3 IgG1; the mutation stands in the GpH7-B3 chain only) heavy 1: not shown heavy 2: not shown light: DIVMTQSPLSLPVTPGEPASISCQASESLVHSNRNTYLHWYLQKPGQSPQLLIYKVSNRFSGVPDRFSGSGSGTDFTLKISRVEAEDVGVYYCSQNTHVPPTFGQGTKVEIERTVAAPSVFIFPPSDEQLKSGTASVVCLLNNFYPREAKVQWKVDNALQSGNSQESVTEQDSKDSTYSLSSTLTLSKADYEKHKVYACEVTHQGLSSPVTKSFNRGEC | 103 % of GpH7-A5/GpH7-B3/GpL16-k0 (=100) | 78.3 % of GpH7-A5/GpH7-B3/GpL16-k0 (=100)
10 | GpH7-A5/GpH7-B3 variant E269_07I/GpL16-k0 (He Ab) (antibody, human IgG1, kappa, Heterodimerized anti-glypican-3 IgG1; the mutation stands in the GpH7-B3 chain only) heavy 1: not shown heavy 2: not shown light: DIVMTQSPLSLPVTPGEPASISCQASESLVHSNRNTYLHWYLQKPGQSPQLLIYKVSNRFSGVPDRFSGSGSGTDFTLKISRVEAEDVGVYYCSQNTHVPPTFGQGTKVEIERTVAAPSVFIFPPSDEQLKSGTASVVCLLNNFYPREAKVQWKVDNALQSGNSQESVTEQDSKDSTYSLSSTLTLSKADYEKHKVYACEVTHQGLSSPVTKSFNRGEC | 103 % of GpH7-A5/GpH7-B3/GpL16-k0 (=100) | 43.9 % of GpH7-A5/GpH7-B3/GpL16-k0 (=100)
